Experimental findings from the supplement of paper PMC10567573 are described below.

± gives the standard deviation.

The nature of this data set: protein stability index of a GFP-peptide fusion (GPS, HEK-293T) (PSI 1-6); higher = more stable. As to conditions: c terminus: a fixed tail appended.
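Note: 24-mer peptide tiles fused after GFP, lentivirally expressed, FACS-sorted into six equal bins by GFP/DsRed ratio, decoded by Illumina sequencing, PSI is the read-weighted mean bin number.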

For the sequence ALVCQVDNDHKEAVGKMGFVVTML [ZER1], the protein stability index (treatment: DMSO) was determined as 2.29 ± 0.29 and the protein stability index (treatment: MLN4924 1 uM, 8 h) is 2.37 ± 0.5.

Turning to AMAMGTPSTTERISTSGQAGTSSH [PXN], the protein stability index is, setting by setting: (treatment: DMSO) 4.86 ± 0.31; (treatment: MLN4924 1 uM, 8 h) 4.98 ± 0.1.

The sequence AMEAVRVNPLHVDSTWLLLRRIRA [SLC25A39] gave a protein stability index (treatment: DMSO) of 2.66 ± 0.41 and a protein stability index (treatment: MLN4924 1 uM, 8 h) of 2.81 ± 0.19.

For ANGTVIAEFILLGLLEAPGLQPVV [OR3A1], the protein stability index reads like this: (treatment: DMSO) 3.06 ± 0.61; (treatment: MLN4924 1 uM, 8 h) 2.7 ± 0.35.

For the sequence ANNRILAERIAKEIQVIPLQRDDE [IMPA1], the protein stability index (treatment: DMSO) was found to be 4.17 ± 0.38 and the protein stability index (treatment: MLN4924 1 uM, 8 h) worked out at 4.04 ± 0.068.

In the case of ANTMEHLSLLDNNIPGNSTLITAV [FBXO33], the protein stability index was 3.16 ± 0.17 (treatment: DMSO) and 3.25 ± 0.33 (treatment: MLN4924 1 uM, 8 h).

As to APPAKLACPVCSKMVPRYDLNRHL [FAN1], the protein stability index is 2.39 ± 0.21 (treatment: DMSO) and 2.95 ± 0.55 (treatment: MLN4924 1 uM, 8 h).

With APSLSGKGNPEEEDVDTSQVLYEW [CTNNB1], the protein stability index was found to be 5.14 ± 0.28 (treatment: DMSO) and 5.15 ± 0.18 (treatment: MLN4924 1 uM, 8 h).

As for APSPGVKEQAIWKHPQPAPAVTPD [PKD2L1], the protein stability index was determined as 5.15 ± 0.1 (treatment: DMSO) and 5.07 ± 0.13 (treatment: MLN4924 1 uM, 8 h).

In the case of AQKLTIRLSSRYRYGQLIEINSHS [TRIP13], the protein stability index by setting is: (treatment: DMSO) 2.17 ± 0.55; (treatment: MLN4924 1 uM, 8 h) 2.01 ± 0.27.

For the sequence AQRVKEVLPHVPLGVIQRDLAKTG [AUP1], the protein stability index is, setting by setting: (treatment: DMSO) 3.81 ± 0.42; (treatment: MLN4924 1 uM, 8 h) 3.85 ± 0.17.

Turning to AQSAGTQQVAAVSSVSPATPFQSV [BRD3], the protein stability index by setting is: (treatment: DMSO) 4.42 ± 0.19; (treatment: MLN4924 1 uM, 8 h) 4.37 ± 0.11.

As to AQSRLEDPGADSEKSTVVEGGEVR [DLX1], the protein stability index is, setting by setting: (treatment: DMSO) 5.42 ± 0.28; (treatment: MLN4924 1 uM, 8 h) 5.45 ± 0.37.

In the case of AQTNPTPGSLGPWKITIYDQENFQ [CRYBA1], the protein stability index was 3.18 ± 0.41 (treatment: DMSO) and 3.3 ± 0.2 (treatment: MLN4924 1 uM, 8 h).

For ARQELLGDRPRWQRLLGEDKFQWL [ANKRD9], the protein stability index (treatment: DMSO) stood at 2.66 ± 0.46 and the protein stability index (treatment: MLN4924 1 uM, 8 h) worked out at 2.98 ± 0.31.

Turning to ASFRVTTGTSNTTAIKSIEFARKG [RBBP5], the protein stability index runs as follows: (treatment: DMSO) 3.91 ± 0.62; (treatment: MLN4924 1 uM, 8 h) 3.86 ± 0.23.

For the sequence ASLLPSARLASPLPREEEIVFPEK [ADAMTS4], the protein stability index by setting is: (treatment: DMSO) 4.7 ± 0.63; (treatment: MLN4924 1 uM, 8 h) 4.97 ± 0.46.

In the case of ASSMLRKSQLGFLNVTNYCHLAHE [DCAF4], the protein stability index runs as follows: (treatment: DMSO) 2.2 ± 0.41; (treatment: MLN4924 1 uM, 8 h) 2.42 ± 0.16.

On to ASVATWAIFVHRVGQPSIGGKLSP [CTBP1-DT], for which the protein stability index is, setting by setting: (treatment: DMSO) 2.65 ± 0.9; (treatment: MLN4924 1 uM, 8 h) 2.33 ± 0.33.

Consider ATDNYDIGFGVYFEWTDSPNTAVS [ACBD3], for which the protein stability index (treatment: DMSO) came out at 2.21 ± 0.16 and the protein stability index (treatment: MLN4924 1 uM, 8 h) came out at 2.25 ± 0.48.

Take ATGEVLGQFYLDLYPREGKYNHAA [NLN]: the protein stability index (treatment: DMSO) was 2.91 ± 0.83 and the protein stability index (treatment: MLN4924 1 uM, 8 h) is 2.73 ± 0.27.

As to AVLAASSPYFHDQVLLKGMTSISL [ZBTB22], the protein stability index is, setting by setting: (treatment: DMSO) 2.7 ± 0.32; (treatment: MLN4924 1 uM, 8 h) 2.47 ± 0.34.

In the case of AVLGLYLLVFLILVGIFILAVSRP [SCARA5], the protein stability index is 3.3 ± 0.071 (treatment: DMSO) and 2.58 ± 0.63 (treatment: MLN4924 1 uM, 8 h).

In the case of AVPTDEARAFAEKNNLSFIETSAL [RAB11B], the protein stability index was found to be 3.31 ± 0.31 (treatment: DMSO) and 3.47 ± 0.54 (treatment: MLN4924 1 uM, 8 h).

AVSAMKCGLLPISPEALSLGEVAY [ADD1]: the protein stability index worked out at 2.31 ± 0.3 (treatment: DMSO) and 2.41 ± 0.066 (treatment: MLN4924 1 uM, 8 h).

AYSGNTSNLSYHLEKNHPEEFCEF [ZBED1]: the protein stability index runs as follows: (treatment: DMSO) 3.63 ± 0.38; (treatment: MLN4924 1 uM, 8 h) 3.55 ± 0.48.

In the case of CASDEGEVIVFGGCANNLLVHHRA [KLHDC2], the protein stability index by setting is: (treatment: DMSO) 2.6 ± 0.35; (treatment: MLN4924 1 uM, 8 h) 2.27 ± 0.29.

Take CDYCDRSFQDNLHNRKKHLNGLQH [ZMAT5]: the protein stability index is 3.09 ± 0.71 (treatment: DMSO) and 3.11 ± 0.38 (treatment: MLN4924 1 uM, 8 h).

Take CERVVINVSGLRFETQMKTLAQFP [KCNA4]: the protein stability index came out at 2.55 ± 0.42 (treatment: DMSO) and 2.51 ± 0.77 (treatment: MLN4924 1 uM, 8 h).

In turn, CHLCNYACRRRDALTGHLRTHSVI [IKZF1] came in with a protein stability index (treatment: DMSO) of 3.06 ± 0.26 and a protein stability index (treatment: MLN4924 1 uM, 8 h) of 3.15 ± 0.4.

For CKKAFREGSRKSSRVKGSAPEIDP [KMT2E], the protein stability index is, setting by setting: (treatment: DMSO) 4.46 ± 0.15; (treatment: MLN4924 1 uM, 8 h) 4.48 ± 0.15.

For CPAELFTNTRSDLDVFGRGDNISD [LUC7L3], the protein stability index (treatment: DMSO) was 4.38 ± 0.26 and the protein stability index (treatment: MLN4924 1 uM, 8 h) is 4.65 ± 0.19.

Regarding CRGIPRGPVRPAIPPPLSSVYAWG [NEK8], the protein stability index was 2.3 ± 0.36 (treatment: DMSO) and 2.35 ± 0.43 (treatment: MLN4924 1 uM, 8 h).

Turning to CRLTHIPAYKVSGDKNEEQVLNAI [ZER1], the protein stability index is, setting by setting: (treatment: DMSO) 3.5 ± 0.42; (treatment: MLN4924 1 uM, 8 h) 3.42 ± 0.3.

In the case of CSPSQMDLLCAQLQLPQLSDLGLL [FANCE], the protein stability index amounted to 2.15 ± 0.42 (treatment: DMSO) and 2.13 ± 0.44 (treatment: MLN4924 1 uM, 8 h).

Take CSSPSVVASLPLDQSDEGSSSQKE [MAGEA10]: the protein stability index is 5.36 ± 0.74 (treatment: DMSO) and 5.49 ± 0.1 (treatment: MLN4924 1 uM, 8 h).
